The test system of data set [1] is HeLa Kyoto. The data set can be described thus: solubility in G1/S (NP-40 vs SDS abundance) (log2 ratio); higher = more soluble. As to conditions: cell cycle stage: G1/S.
Data set [2] has as its system HeLa Kyoto. The data set can be described thus: solubility change mitosis vs G1/S (difference of NP-40 vs SDS log2 ratios) (log2 ratio difference); higher = more soluble in mitosis.

We go through ten sequences from the supplement of paper PMC5998384.
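Throughout, for solubility change mitosis vs G1/S (difference of NP-40 vs SDS log2 ratios): synchronized HeLa Kyoto cells (double thymidine block for G1/S, nocodazole release for mitosis), protein amounts in NP-40 versus SDS lysates quantified by mass spectrometry, three biological replicates.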
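Throughout, for solubility in G1/S (NP-40 vs SDS abundance): HeLa Kyoto cells arrested at G1/S by double thymidine block, proteins quantified by TMT10plex mass spectrometry in mild NP-40 versus SDS extracts, three biological replicates.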

For “MDDSDTPTYYLQIEPQDGCHPGDSVERSVTCLPSASDENENQLDGDGHEHLTSSDSAMGKPQVSEQDSLNNNESCTLSCEVAAGENLQNTLCEASRDEQAFLGKDKKIPGKRSPRSKKGTAKKIPPGLFSGDIAPLMQEKVLSAVTYAVDDEEAAEVNANEQPEAPKLVLQSLFSLIRGEVEQLDSRALPLCLHQIAESYFQEEDYEKAMKFIQLERLYHEQLLANLSAIQEQWETKWKTVQPHTVTALRNSEKGFNGEDFERLTKICATHQDPLLSKHKIAAVEKSQERKCSTQLLVSEDPKEGGATTKESESKTCLGTESSKESQHTVEPLGSSPCCHQMDVQTDSPSLSVTAGKDHMEELLCSAEATLALHTQSSETAGSPSGPDSSEDACEDDSRLQLAQTEACQDVARIEGIAEDPKVFLSSKSKTEPLISPGCDRIPPALISEGKYSQAQRKELRLPLRDASEALPTDQLENNELNELQQPDLTDSDGKSPQAQADSDGSENVLCGNNQISDLGILLPEVCMAPEEKGDKDDQLNKETEDYLNSLLEGCLKDTEDSLSYEDNQDDDSDLLQDLSPEEASYSLQENLPSDESCLSLDDLAKRIEIAEVVPTEGLVSILKKRNDTVGDHPAQMQHKPSKRRVRFQEIDDSLDQDEVGGGSCILLVLLCIATVFLSVGGTALYCTFGDMESPVCTDFADNMDFYYTKLLQGVAELKHWIYLS [CNST]”, in data set [1], the “solubility in G1/S (log2)” value came to 0.292. In data set [2], the “solubility change mitosis (log2)” value was -0.0548.

With “MDGAVMEGPLFLQSQRFGTKRWRKTWAVLYPASPHGVARLEFFDHKGSSSGGGRGSSRRLDCKVIRLAECVSVAPVTVETPPEPGATAFRLDTAQRSHLLAADAPSSAAWVQTLCRNAFPKGSWTLAPTDNPPKLSALEMLENSLYSPTWEGSQFWVTVQRTEAAERCGLHGSYVLRVEAERLTLLTVGAQSQILEPLLSWPYTLLRRYGRDKVMFSFEAGRRCPSGPGTFTFQTAQGNDIFQAVETAIHRQKAQGKAGQGHDVLRADSHEGEVAEGKLPSPPGPQELLDSPPALYAEPLDSLRIAPCPSQDSLYSDPLDSTSAQAGEGVQRKKPLYWDLYEHAQQQLLKAKLTDPKEDPIYDEPEGLAPVPPQGLYDLPREPKDAWWCQARVKEEGYELPYNPATDDYAVPPPRSTKPLLAPKPQGPAFPEPGTATGSGIKSHNSALYSQVQKSGASGSWDCGLSRVGTDKTGVKSEGST [DOK1]”, the “solubility in G1/S (log2)” value in data set [1] was -0.257. In addition, in data set [2], the “solubility change mitosis (log2)” value amounted to 0.00435.

On to “MDPGWGQRDVGWAALLILFAASLLTVFAWLLQYARGLWLARARGDRGPGPALAGEPAGSLRELGVWRSLLRLRATRAGAAEEPGVRGLLASLFAFKSFRENWQRAWVRALNEQACRNGSSIQIAFEEVPQLPPRASISHVTCVDQSEHTMVLRCQLSAEEVRFPVSVTQQSPAAVSMETYHVTLTLPPTQLEVNLEEIPGEGLLISWAFTDRPDLSLTVLPKLQARERGEEQVELSTIEELIKDAIVSTQPAMMVNLRACSAPGGLVPSEKPPMMPQAQPAIPRPNRLFLRQLRASHLGNELEGTEELCCVAELDNPMQQKWTKPARAGSEVEWTEDLALDLGPQSRELTLKVLRSSSCGDTELLGQATLPVGSPSRPLSRRQLCPLTPGPGKALGPAATMAVELHYEEGSPRNLGTPTSSTPRPSITPTKKIELDRTIMPDGTIVTTVTTVQSRPRIDGKLDSPSRSPSKVEVTEKTTTVLSESSGPSNTSHSSSRDSHLSNGLDPVAETAIRQLTEPSGRVAKKTPTKRSTLIISGVSKVPIAQDELALSLGYAASLEASVQDDAGTSGGPSSPPSDPPAMSPGPLDALSSPTSVQEADETTRSDISERPSVDDIESETGSTGALETRSLKDHKVSFLRSGTKLIFRRRPRQKEAGLSQSHDDLSNATATPSVRKKAGSFSRRLIKRFSFKSKPKANGNPSPQL [C2CD2L]”, for which the “solubility in G1/S (log2)” value in data set [1] was -0.0395. The “solubility change mitosis (log2)” value in data set [2] was -0.0722.

On to “MDPQPPPPAQGSPPHRGRGRGRGRGRGRGRGRGRGGAGAPRAPLPCPTCGRLFRFPYYLSRHRLSHSGLRPHACPLCPKAFRRPAHLSRHLRGHGPQPPLRCAACPRTFPEPAQLRRHLAQEHAGGEVELAIERVAKETAEPSWGPQDEGSEPPTTAAAGATEEEAVAAWPETWPAGEPSTLAAPTSAAEPRESESEEAEAGAAELRAELALAAGRQEEKQVLLQADWTLLCLRCREAFATKGELKAHPCLRPEGEQEGEGGPPPRPKRHQCSICLKAFARPWSLSRHRLVHSTDRPFVCPDCGLAFRLASYLRQHRRVHGPLSLLAPLPAAGKKDDKASGARNSAKGPEGGEGAECGGASEGGEGQNGGDAAPARPPAGEPRFWCPECGKGFRRRAHLRQHGVTHSGARPFQCVRCQREFKRLADLARHAQVHAGGPAPHPCPRCPRRFSRAYSLLRHQRCHRAELERAAALQALQAQAPTSPPPPPPPLKAEQEEEGLPLPLANIKEEPPSPGTPPQSPPAPPVFLSASCFDSQDHSAFEMEEEEVDSKAHLRGLGGLAS [ZNF579]”, for which the “solubility in G1/S (log2)” value in data set [1] is -0.0421. Also, the “solubility change mitosis (log2)” value in data set [2] turned out to be 0.288.

Regarding “MDPRGTKRGAEKTEVAEPRNKLPRPAPSLPTDPALYSGPFPFYRRPSELGCFSLDAQRQYHGDARALRYYSPPPTNGPGPNFDLRDGYPDRYQPRDEEVQERLDHLLCWLLEHRGRLEGGPGWLAEAIVTWRGHLTKLLTTPYERQEGWQLAASRFQGTLYLSEVETPNARAQRLARPPLLRELMYMGYKFEQYMCADKPGSSPDPSGEVNTNVAFCSVLRSRLGSHPLLFSGEVDCTDPQAPSTQPPTCYVELKTSKEMHSPGQWRSFYRHKLLKWWAQSFLPGVPNVVAGFRNPDGFVSSLKTFPTMKMFEYVRNDRDGWNPSVCMNFCAAFLSFAQSTVVQDDPRLVHLFSWEPGGPVTVSVHQDAPYAFLPIWYVEAMTQDLPSPPKTPSPK [DXO]”, in data set [1], the “solubility in G1/S (log2)” value worked out at 0.0451. The “solubility change mitosis (log2)” value in data set [2] is -0.2.

As to “MDPRVAWIQPEQKGPANALWMQIWETSQGVGRGGSGFASYFCLNSPALDTAAAAGAAGRGSGGLGPALPAASPPPPGPTAPAALPPALLTALGPAAEGARRLHKSPSLSSSSSSSSSNAESGTESPGCSSSSSSSASLGRPGGGRGGAFFNFADGAPSAPGTANGHPGPRGPAPAGSPSQHQFHPGRRKRENKASTYGLNYLLSGSRAAALSGGGGPGAQAPRPGTPWKSRAYSPGIQGLHEEIIDFYNFMSPCPEEAAMRREVVKRIETVVKDLWPTADVQIFGSFSTGLYLPTSDIDLVVFGKWERPPLQLLEQALRKHNVAEPCSIKVLDKATVPIIKLTDQETEVKVDISFNMETGVRAAEFIKNYMKKYSLLPYLILVLKQFLLQRDLNEVFTGGISSYSLILMAISFLQLHPRIDARRADENLGMLLVEFFELYGRNFNYLKTGIRIKEGGAYIAKEEIMKAMTSGYRPSMLCIEDPLLPGNDVGRSSYGAMQVKQVFDYAYIVLSHAVSPLARSYPNRDAESTLGRIIKVTQEVIDYRRWIKEKWGSKAHPSPGMDSRIKIKERIATCNGEQTQNREPESPYGQRLTLSLSSPQLLSSGSSASSVSSLSGSDVDSDTPPCTTPSVYQFSLQAPAPLMAGLPTALPMPSGKPQPTTSRTLIMTTNNQTRFTIPPPTLGVAPVPCRQAGVEGTASLKAVHHMSSPAIPSASPNPLSSPHLYHKQHNGMKLSMKGSHGHTQGGGYSSVGSGGVRPPVGNRGHHQYNRTGWRRKKHTHTRDSLPVSLSR [PAPD7]”, the “solubility in G1/S (log2)” value in data set [1] was -0.21. Moreover, in data set [2], the “solubility change mitosis (log2)” value worked out at 0.0856.

In the case of “MDRDLLRQSLNCHGSSLLSLLRSEQQDNPHFRSLLGSAAEPARGPPPQHPLQGRKEKRVDNIEIQKFISKKADLLFALSWKSDAPATSEINEDSEDHYAIMPPLEQFMEIPSMDRRELFFRDIERGDIVIGRISSIREFGFFMVLICLGSGIMRDIAHLEITALCPLRDVPSHSNHGDPLSYYQTGDIIRAGIKDIDRYHEKLAVSLYSSSLPPHLSGIKLGVISSEELPLYYRRSVELNSNSLESYENVMQSSLGFVNPGVVEFLLEKLGIDESNPPSLMRGLQSKNFSEDDFASALRKKQSASWALKCVKIGVDYFKVGRHVDAMNEYNKALEIDKQNVEALVARGALYATKGSLNKAIEDFELALENCPTHRNARKYLCQTLVERGGQLEEEEKFLNAESYYKKALALDETFKDAEDALQKLHKYMQKSLELREKQAEKEEKQKTKKIETSAEKLRKLLKEEKRLKKKRRKSTSSSSVSSADESVSSSSSSSSSGHKRHKKHKRNRSESSRSSRRHSSRASSNQIDQNRKDECYPVPANTSASFLNHKQEVEKLLGKQDRLQYEKTQIKEKDRCPLSSSSLEIPDDFGGRSEDPRDFYNSYKTQAGSSKTEKPYKSERHFSSRRNSSDSFCRNSEDKIYGYRRFEKDIEGRKEHYRRWEPGSVRHSTSPASSEYSWKSVEKYKKYAHSGSRDFSRHEQRYRLNTNQGEYEREDNYGEDIKTEVPEEDALSSKEHSESSVKKNLPQNLLNIFNQIAEFEKEKGNKSKN [TTC14]”, the “solubility in G1/S (log2)” value in data set [1] was -0.392. Also, the “solubility change mitosis (log2)” value in data set [2] amounted to 0.329.

Regarding “MDRGQPSLEPAAAAPRASGRCVIAPVRAVLRLRRRVCVLRKRRLLQPGGGPDVGTGAPRPGCSPRAPRADLDQPKFFTFDSPAELPSRTPRKKRRRSRLVLYPETSRKYRPRVEHRSRAQRCLLLLVAIVGFQVLNAIENLDDNAQRYDLDGLEKALQRAVFGQPAAVSRIVALMRDYLATHVHSRPLLLALHGPSGVGKSHVGRLLARHFRSVLEDSALVLQYHARHHCPEARAAQDCREELARRVADVVARAEAEEKTPLLVLDDVELMPRPLLDELHGFLQPQRSHHFHNAIYVLLSGAGGAEVTRFVLQNASRALPLRPDGFRSAEAAAAQAEEDLRASLLAVLSREHPLWQAAAIVPFLLLDKRDVVSCFRDEMAGEGFFPDQARAENLAAQLSFYRVAGREFAVTGCKQVVATVNLL [TOR4A]”, in data set [1], the “solubility in G1/S (log2)” value worked out at 0.137. Besides, the “solubility change mitosis (log2)” value in data set [2] came to 0.0625.

“MDSPGYNCFVDKDKMDAAIQDLGPKELSCTELQELKQLARQGYWAQSHALRGKVYQRLIRDIPCRTVTPDASVYSDIVGKIVGKHSSSCLPLPEFVDNTQVPSYCLNARGEGAVRKILLCLANQFPDISFCPALPAVVALLLHYSIDEAECFEKACRILACNDPGRRLIDQSFLAFESSCMTFGDLVNKYCQAAHKLMVAVSEDVLQVYADWQRWLFGELPLCYFARVFDVFLVEGYKVLYRVALAILKFFHKVRAGQPLESDSVKQDIRTFVRDIAKTVSPEKLLEKAFAIRLFSRKEIQLLQMANEKALKQKGITVKQKSVSLSKRQFVHLAVHAENFRSEIVSVREMRDIWSWVPERFALCQPLLLFSSLQHGYSLARFYFQCEGHEPTLLLIKTTQKEVCGAYLSTDWSERNKFGGKLGFFGTGECFVFRLQPEVQRYEWVVIKHPELTKPPPLMAAEPTAPLSHSASSDPADRLSPFLAARHFNLPSKTESMFMAGGSDCLIVGGGGGQALYIDGDLNRGRTSHCDTFNNQPLCSENFLIAAVEAWGFQDPDTQ [TBC1D24]”: the “solubility in G1/S (log2)” value in data set [1] was -0.273. Further, the “solubility change mitosis (log2)” value in data set [2] was -0.16.

As for “MDSPWDELALAFSRTSMFPFFDIAHYLVSVMAVKRQPGAAALAWKNPISSWFTAMLHCFGGGILSCLLLAEPPLKFLANHTNILLASSIWYITFFCPHDLVSQGYSYLPVQLLASGMKEVTRTWKIVGGVTHANSYYKNGWIVMIAIGWARGAGGTIITNFERLVKGDWKPEGDEWLKMSYPAKVTLLGSVIFTFQHTQHLAISKHNLMFLYTIFIVATKITMMTTQTSTMTFAPFEDTLSWMLFGWQQPFSSCEKKSEAKSPSNGVGSLASKPVDVASDNVKKKHTKKNE [TMEM38B]”, the “solubility in G1/S (log2)” value in data set [1] was -0.0322. In addition, the “solubility change mitosis (log2)” value in data set [2] was -0.17.
